Where a chain is given by its changes, count along the chain named. Values belong to the binder of their own block, whether it stands above or below them.
How the values were obtained:
[1] = target: T1, CD79b on malignant B cell lines (BJAB, Daudi, SUDHL-4, Nalm-6) (UniProt P40259 29-229, limits assumed); assay: flow cytometry (MFI of PE) on Daudi cells
T1 construct: whole, on cells; also called malignant B cells
T1 sequence (looked up): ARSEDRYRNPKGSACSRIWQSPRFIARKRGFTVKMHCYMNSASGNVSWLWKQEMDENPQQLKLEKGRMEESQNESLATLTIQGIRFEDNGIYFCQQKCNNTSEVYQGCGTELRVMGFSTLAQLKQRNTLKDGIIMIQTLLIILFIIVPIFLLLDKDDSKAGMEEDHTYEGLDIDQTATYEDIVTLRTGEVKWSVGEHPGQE
Protocol: (§1) To evaluated the affinities of chCD79b×msnCD3 antibodies to malignant B cell lines. BJAB, Daudi, SUDHL-4 and Nalm-6 cells were purchased from ATCC. For each different cell line, 5×10⁴ cells were mixed with serially diluted antibodies Pola/msnCD3, 22D10/msnCD3, 44G2/msnCD3, 48H10/msnCD3 and 57B9/msnCD3, Mosunetuzumab, and negative control Human IgG Isotype Control (Invitrogen Catalog #02-7102) and incubated on ice for 30 minutes. After incubation, cells were washed twice and detected with an anti-human IgG PE secondary antibody (ebioscience. Cat: 12-4998-82). For analysis, the mean fluorescence intensity (MFI of PE) of each antibody was determined and plotted using GraphPad prism software (version 10.10.1; GraphPad Software Inc).

[2] = target: CD3 on Jurkat-Lucia NFAT reporter T lymphocytes (UniProt P07766 23-207); assay: cell-based or functional assay
[3] = target: T1, CD79b on malignant B cell lines (BJAB, …); assay: flow cytometry (MFI of PE) on Nalm-6 cells
Protocol: as §1

[4] = target: T1, CD79b on malignant B cell lines (BJAB, …); assay: flow cytometry (MFI of PE) on BJAB cells
Protocol: as §1

[5] = target: T1, CD79b on malignant B cell lines (BJAB, …); assay: flow cytometry (MFI of PE) on SUDHL-4 cells
Protocol: as §1

[6] = target: T2, antigen on malignant B cell lines (BJAB, Daudi, SUDHL-4, Nalm-6) bound by Mosunetuzumab, not named in the …; assay: flow cytometry (MFI of PE) on Daudi cells
T2 chain: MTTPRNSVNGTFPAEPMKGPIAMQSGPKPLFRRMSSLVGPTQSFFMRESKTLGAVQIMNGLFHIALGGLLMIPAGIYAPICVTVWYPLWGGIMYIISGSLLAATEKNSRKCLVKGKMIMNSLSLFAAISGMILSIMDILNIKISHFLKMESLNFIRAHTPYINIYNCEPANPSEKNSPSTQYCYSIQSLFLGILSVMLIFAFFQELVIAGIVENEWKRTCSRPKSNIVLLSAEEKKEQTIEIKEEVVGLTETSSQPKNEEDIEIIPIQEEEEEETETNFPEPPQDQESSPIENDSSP
Protocol: as §1

[7] = target: T2, antigen on malignant B cell lines …; assay: flow cytometry (MFI of PE) on BJAB cells
Protocol: as §1

[8] = target: T2, antigen on malignant B cell lines …; assay: flow cytometry (MFI of PE) on SUDHL-4 cells
Protocol: as §1

CD3 on Jurkat-Lucia NFAT reporter T lymphocytes, sequence (P07766 23-207): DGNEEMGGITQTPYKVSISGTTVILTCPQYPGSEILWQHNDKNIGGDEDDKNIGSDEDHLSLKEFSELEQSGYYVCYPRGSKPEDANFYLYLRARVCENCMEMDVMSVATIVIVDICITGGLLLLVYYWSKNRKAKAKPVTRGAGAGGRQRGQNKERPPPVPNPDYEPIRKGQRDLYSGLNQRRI

- EC50 [1]: 4.59 nM
- T cell activation effect, NFAT-Luc reporter, EC50 nM [2]: ~24 nM
- EC50 [3]: 9510 nM
- EC50 [4]: 15.1 nM
- EC50 [5]: 11.9 nM
B1: 57B9/msnCD3 (bispecific antibody, human IgG1, kappa, N297G)
light: ALVMTQTPSSVSADVGGTVSINCQASEDIESYLAWYQQKPGQPPKLLIYFTSNLASGVPSRFKGSGSGTEYTLTISGVQPDDAATYYCQQGYRNSDVHNPFGGGTEVVVKRTVAAPSVFIFPPSDEQLKSGTASVVCLLNNFYPREAKVQWKVDNALQSGNSQESVTEQDSKDSTYSLSSTLTLSKADYEKHKVYACEVTHQGLSSPVTKSFNRGEC
heavy: QSVRETGGGLVQPGGSLTLSCEASEFTINIDYWISWVRQAPGKGLEWIGIIDPGDGTTYFAIWVNGRFTITRNTNLNTVDLKMTSLTEADTATYFCAREVSASAYQYDLWGPGTLVTVSSASTKGPSVFPLAPSSKSTSGGTAALGCLVKDYFPEPVTVSWSSGALTSGVHTFPAVLQSSGLYSLSSVVTVPSSSLGTQTYICNVNHKPSNTKVDKKVEPKSCDKTHTCPPCPAPELLGGPSVFLFPPKPKDTLMISRTPEVTCVVVDVSHEDPEVKFNWYVDGVEVHNAKTKPREEQYGSTYRVVSVLTVLHQDWLNGKEYKCKVSNKALPAPIEKTISKAKGQPREPQVYTLPPSRDELTKNQVSLSCAVKGFYPSDIAVEWESNGQPENNYKTTPPVLDSDGSFFLVSKLTVDKSRWQQGNVFSCSVMHEALHNRFTQKSLSLSPGK
chain: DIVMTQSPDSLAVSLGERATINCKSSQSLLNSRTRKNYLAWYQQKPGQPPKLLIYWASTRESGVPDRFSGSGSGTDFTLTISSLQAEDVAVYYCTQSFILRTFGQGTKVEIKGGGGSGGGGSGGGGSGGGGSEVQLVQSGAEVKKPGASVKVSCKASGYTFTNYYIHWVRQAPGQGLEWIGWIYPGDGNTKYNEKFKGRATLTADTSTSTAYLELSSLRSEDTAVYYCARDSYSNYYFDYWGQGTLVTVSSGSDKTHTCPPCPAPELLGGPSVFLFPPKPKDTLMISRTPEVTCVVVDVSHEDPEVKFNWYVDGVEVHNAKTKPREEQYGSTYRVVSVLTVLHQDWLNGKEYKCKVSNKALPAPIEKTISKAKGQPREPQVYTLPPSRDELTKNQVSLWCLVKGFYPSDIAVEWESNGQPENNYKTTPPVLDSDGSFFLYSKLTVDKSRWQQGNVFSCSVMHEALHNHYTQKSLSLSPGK
notes: also called 57B9/mscCD3; CD79b/CD3 bispecific antibody

- EC50 [1]: 4.04 nM
- T cell activation effect, NFAT-Luc reporter, EC50 nM [2]: ~15.4 nM
- EC50 [4]: 18.9 nM
- EC50 [5]: 15.5 nM
B5: Pola/msnCD3 (bispecific antibody, human IgG1, kappa, N297G)
light: DIQLTQSPSSLSASVGDRVTITCKASQSVDYEGDSFLNWYQQKPGKAPKLLIYAASNLESGVPSRFSGSGSGTDFTLTISSLQPEDFATYYCQQSNEDPLTFGQGTKVEIKRTVAAPSVFIFPPSDEQLKSGTASVVCLLNNFYPREAKVQWKVDNALQSGNSQESVTEQDSKDSTYSLSSTLTLSKADYEKHKVYACEVTHQGLSSPVTKSFNRGEC
heavy: EVQLVESGGGLVQPGGSLRLSCAASGYTFSSYWIEWVRQAPGKGLEWIGEILPGGGDTNYNEIFKGRATFSADTSKNTAYLQMNSLRAEDTAVYYCTRRVPIRLDYWGQGTLVTVSSASTKGPSVFPLAPSSKSTSGGTAALGCLVKDYFPEPVTVSWSSGALTSGVHTFPAVLQSSGLYSLSSVVTVPSSSLGTQTYICNVNHKPSNTKVDKKVEPKSCDKTHTCPPCPAPELLGGPSVFLFPPKPKDTLMISRTPEVTCVVVDVSHEDPEVKFNWYVDGVEVHNAKTKPREEQYGSTYRVVSVLTVLHQDWLNGKEYKCKVSNKALPAPIEKTISKAKGQPREPQVYTLPPSRDELTKNQVSLSCAVKGFYPSDIAVEWESNGQPENNYKTTPPVLDSDGSFFLVSKLTVDKSRWQQGNVFSCSVMHEALHNRFTQKSLSLSPGK
chain: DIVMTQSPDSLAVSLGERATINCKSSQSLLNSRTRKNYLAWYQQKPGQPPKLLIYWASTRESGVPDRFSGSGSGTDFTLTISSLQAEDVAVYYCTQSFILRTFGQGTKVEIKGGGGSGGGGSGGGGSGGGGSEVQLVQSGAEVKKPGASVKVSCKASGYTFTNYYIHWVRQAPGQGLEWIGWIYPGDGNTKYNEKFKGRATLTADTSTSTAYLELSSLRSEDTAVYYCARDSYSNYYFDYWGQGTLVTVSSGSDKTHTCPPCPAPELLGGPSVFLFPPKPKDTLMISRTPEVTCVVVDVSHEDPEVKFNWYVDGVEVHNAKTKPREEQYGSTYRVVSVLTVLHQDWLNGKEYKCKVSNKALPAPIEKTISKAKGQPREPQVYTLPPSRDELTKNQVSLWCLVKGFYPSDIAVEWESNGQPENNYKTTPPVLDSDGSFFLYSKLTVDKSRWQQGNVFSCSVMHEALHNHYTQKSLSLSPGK
notes: also called CD79b/CD3 bispecific antibody; chCD79b×msnCD3

- EC50 [6]: 13.7 nM
- T cell activation effect, NFAT-Luc reporter, EC50 nM [2]: 2.06 nM
- EC50 [7]: 50.4 nM
- EC50 [8]: 30.6 nM
B6: Mosunetuzumab (bispecific antibody)
chain 1: not shown
chain 2: DIQMTQSPSSLSASVGDRVTITCRASSSVSYMHWYQQKPGKAPKPLIYAPSNLASGVPSRFSGSGSGTDFTLTISSLQPEDFATYYCQQWSFNPPTFGQGTKVEIKRTVAAPSVFIFPPSDEQLKSGTASVVCLLNNFYPREAKVQWKVDNALQSGNSQESVTEQDSKDSTYSLSSTLTLSKADYEKHKVYACEVTHQGLSSPVTKSFNRGEC
chain 3: EVQLVQSGAEVKKPGASVKVSCKASGYTFTNYYIHWVRQAPGQGLEWIGWIYPGDGNTKYNEKFKGRATLTADTSTSTAYLELSSLRSEDTAVYYCARDSYSNYYFDYWGQGTLVTVSSASTKGPSVFPLAPSSKSTSGGTAALGCLVKDYFPEPVTVSWNSGALTSGVHTFPAVLQSSGLYSLSSVVTVPSSSLGTQTYICNVNHKPSNTKVDKKVEPKSCDKTHTCPPCPAPELLGGPSVFLFPPKPKDTLMISRTPEVTCVVVDVSHEDPEVKFNWYVDGVEVHNAKTKPREEQYGSTYRVVSVLTVLHQDWLNGKEYKCKVSNKALPAPIEKTISKAKGQPREPQVYTLPPSREEMTKNQVSLSCAVKGFYPSDIAVEWESNGQPENNYKTTPPVLDSDGSFFLVSKLTVDKSRWQQGNVFSCSVMHEALHNHYTQKSLSLSPGK
chain 4: not shown

Further lines, the binder ahead of its results:

B2: 22D10/msnCD3 (bispecific antibody, human IgG1, kappa, N297G)
light: ALVMTQTPSSVSAAVGGTVTINCRASEDIERYLAWYQQKPGQRPKLLIYGASTLASGVPSRFKGSGSGTEYTLTISGVQPDDAATYYCHQGDSSRNVVNVFGGGTEVVVKRTVAAPSVFIFPPSDEQLKSGTASVVCLLNNFYPREAKVQWKVDNALQSGNSQESVTEQDSKDSTYSLSSTLTLSKADYEKHKVYACEVTHQGLSSPVTKSFNRGEC
heavy: QSVEESGGRLVTPGTPLTLTCTASGFTINDYHMNWVRQAPGKGLEWIGIISSNGDTYYASWAKGRFTISRTSTTVDLKMTSLTTEDTATYFCARDDRDRSYAFDPWGPGTLVTVSSASTKGPSVFPLAPSSKSTSGGTAALGCLVKDYFPEPVTVSWSSGALTSGVHTFPAVLQSSGLYSLSSVVTVPSSSLGTQTYICNVNHKPSNTKVDKKVEPKSCDKTHTCPPCPAPELLGGPSVFLFPPKPKDTLMISRTPEVTCVVVDVSHEDPEVKFNWYVDGVEVHNAKTKPREEQYGSTYRVVSVLTVLHQDWLNGKEYKCKVSNKALPAPIEKTISKAKGQPREPQVYTLPPSRDELTKNQVSLSCAVKGFYPSDIAVEWESNGQPENNYKTTPPVLDSDGSFFLVSKLTVDKSRWQQGNVFSCSVMHEALHNRFTQKSLSLSPGK
chain: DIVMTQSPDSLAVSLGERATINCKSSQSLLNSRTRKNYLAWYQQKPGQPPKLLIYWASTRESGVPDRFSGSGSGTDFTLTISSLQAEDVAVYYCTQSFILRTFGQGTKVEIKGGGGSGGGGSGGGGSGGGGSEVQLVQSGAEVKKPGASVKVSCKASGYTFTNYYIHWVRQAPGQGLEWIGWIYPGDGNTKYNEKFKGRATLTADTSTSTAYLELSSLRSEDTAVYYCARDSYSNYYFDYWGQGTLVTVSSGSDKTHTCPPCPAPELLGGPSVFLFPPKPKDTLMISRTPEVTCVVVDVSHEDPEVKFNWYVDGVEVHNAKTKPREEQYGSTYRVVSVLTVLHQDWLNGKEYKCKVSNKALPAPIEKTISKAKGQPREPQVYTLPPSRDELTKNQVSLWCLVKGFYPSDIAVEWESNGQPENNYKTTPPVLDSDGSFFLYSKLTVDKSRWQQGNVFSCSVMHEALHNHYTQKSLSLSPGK
notes: as for B5
- EC50 [1]: 17.1 nM
- T cell activation effect, NFAT-Luc reporter, EC50 nM [2]: 866 nM
- EC50 [4]: 1.24 nM

B3: 44G2/msnCD3 (bispecific antibody, human IgG1, kappa, N297G)
light: DLVMTQTPSSVSAAVGGTVSINCRASEDIENYLAWYQQKPGQPPKLLIYRASTLSSGVSSRFSGSGSGTEFTLTISGVQPDDAATYYCQQGYRNSNVDNPFGGGTEMVVKRTVAAPSVFIFPPSDEQLKSGTASVVCLLNNFYPREAKVQWKVDNALQSGNSQESVTEQDSKDSTYSLSSTLTLSKADYEKHKVYACEVTHQGLSSPVTKSFNRGEC
heavy: QSVRETGGGLVQPGGSLKLSCKASGFTINIDYWISWVRQAPGKGLEWIGIIDPGDGTTYFAIWVNGRFTISFDNTQNTVDLQMNSLTAADTATYFCVREFSASAYQYDLWGPGTLVTVSSASTKGPSVFPLAPSSKSTSGGTAALGCLVKDYFPEPVTVSWSSGALTSGVHTFPAVLQSSGLYSLSSVVTVPSSSLGTQTYICNVNHKPSNTKVDKKVEPKSCDKTHTCPPCPAPELLGGPSVFLFPPKPKDTLMISRTPEVTCVVVDVSHEDPEVKFNWYVDGVEVHNAKTKPREEQYGSTYRVVSVLTVLHQDWLNGKEYKCKVSNKALPAPIEKTISKAKGQPREPQVYTLPPSRDELTKNQVSLSCAVKGFYPSDIAVEWESNGQPENNYKTTPPVLDSDGSFFLVSKLTVDKSRWQQGNVFSCSVMHEALHNRFTQKSLSLSPGK
chain: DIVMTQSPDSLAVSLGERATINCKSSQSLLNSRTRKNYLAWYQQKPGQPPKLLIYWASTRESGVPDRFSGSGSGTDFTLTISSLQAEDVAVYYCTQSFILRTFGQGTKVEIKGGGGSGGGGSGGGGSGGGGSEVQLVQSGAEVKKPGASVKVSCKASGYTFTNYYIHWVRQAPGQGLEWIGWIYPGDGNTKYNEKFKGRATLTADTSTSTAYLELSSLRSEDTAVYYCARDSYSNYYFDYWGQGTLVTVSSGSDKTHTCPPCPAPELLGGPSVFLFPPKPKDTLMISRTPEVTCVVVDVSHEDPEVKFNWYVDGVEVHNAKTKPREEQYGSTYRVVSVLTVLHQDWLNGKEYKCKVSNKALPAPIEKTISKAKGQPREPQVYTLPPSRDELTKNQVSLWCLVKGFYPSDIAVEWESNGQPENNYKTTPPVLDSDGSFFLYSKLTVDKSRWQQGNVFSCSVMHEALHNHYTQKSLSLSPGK
notes: as for B5
- EC50 [1]: 0.614 nM
- T cell activation effect, NFAT-Luc reporter, EC50 nM [2]: 1.12 nM
- EC50 [3]: 9.53 nM
- EC50 [4]: 4.33 nM
- EC50 [5]: 1.73 nM

B4: 48H10/msnCD3 (bispecific antibody, human IgG1, kappa, N297G)
light: B3 light with D1A, R24Q, N31S, A34T, I48M, G64A, S95K, N96D, M107V
heavy: B3 heavy with R4K, K18T, F72T, T75A, V97A
chain: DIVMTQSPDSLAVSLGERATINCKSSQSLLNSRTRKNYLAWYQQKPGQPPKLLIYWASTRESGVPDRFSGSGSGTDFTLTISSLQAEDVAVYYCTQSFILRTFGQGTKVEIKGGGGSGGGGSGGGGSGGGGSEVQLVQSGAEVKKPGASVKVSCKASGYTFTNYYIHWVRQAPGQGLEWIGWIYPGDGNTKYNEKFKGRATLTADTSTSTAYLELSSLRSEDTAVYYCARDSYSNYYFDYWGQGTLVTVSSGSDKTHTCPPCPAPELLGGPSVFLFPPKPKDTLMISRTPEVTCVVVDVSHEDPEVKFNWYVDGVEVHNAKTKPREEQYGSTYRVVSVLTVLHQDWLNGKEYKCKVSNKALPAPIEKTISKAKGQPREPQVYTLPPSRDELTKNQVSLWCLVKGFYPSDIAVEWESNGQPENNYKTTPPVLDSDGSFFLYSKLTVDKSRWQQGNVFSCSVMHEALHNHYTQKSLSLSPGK
notes: as for B5
- EC50 [1]: 1.28 nM
- T cell activation effect, NFAT-Luc reporter, EC50 nM [2]: 1.91 nM
- EC50 [3]: 19 nM
- EC50 [4]: 2.88 nM
- EC50 [5]: 3.23 nM

From patent publication US20250304679A1 (LTZ THERAPEUTICS, published 2025)
